# Measurements reported in US7407783B2, “Fructosylamine oxidase” (priority 2002, dated 2008).
# Entries after “also recorded” stand apart in the source; their conditions may differ.
# B1: FAO-Q2: fructosylamine oxidase from Fusarium proliferatum GL2-1, Resource Q fraction Q2; amino acid sequence SEQ ID NO: 6 (protein, listed as Fusarium proliferatum)
# chain: MARTVAPLNKDSGILIVGGGTWGCSTALHLARRGYTNVTVLDVNRIPSPISAGHDVNKLSNRLGTSDSKGDDEDSIWKALTYAAAQGWLHDPIFQPFCHNTGAVMAGSTPKSIKQLVEDEIGDDIDQYTPLNTAEDFRRTMPERILTGDFLGWKGFYKPRGSGWVHARKAMKAAFEESQRLGVKFITGSPEGKVESLVFEAGDVKGAKTADGKEHRADRTILSAGASAEFSLDFENQIRPTAWTLGHIQMTAEETKLYKELPPLFNINQGFFMEPDEDLHQLKMCDEHPGYCNWVDKPGSKYPQSIPFAKYQVPIEAERRMKQFLKDIMPQLADRPLVHARICWCADTQDRMFLITYHPRHPSLVIASGDCGTGYKHITSIGKFISDCMEGTLEERFAKFWRWRPEKFTEFWGKDPLDRFGADDKIMDLPKSDAEGWTDIQNDK
# B2: FAO-Q1: fructosylamine oxidase from Fusarium proliferatum GL2-1, Resource Q fraction Q1; amino acid sequence SEQ ID NO: 4 (protein, listed as Fusarium proliferatum)
# chain: MAGPPSSILIVGSGVFGLGTAWALAKRSHFSNTSITVVDDCAGQFPPEDAASVDSSRIVRADYSDPYYAALAAEAQKEWRKQGDHEVGGQGRYSESGFVLCASETPEDFKLKKSGMDYTKESAKNVELIAKETGLPVDKIQKLESTKALQEFLGTDGYPGDWGYLNGNSGWADAGEGMKWLYKQAQATGRIHFVNGKVTELVTEGDRVIGAKLSDSKILKADVVMVAAGAWSGSLVDLRGRTEATGHAVAYMDITPEEQKRLDNFPVVLNLSTGLFLIPPRNNVLKAARHTFGYINPVKINNALPPSPNDKREPFIASQPYTSRNDSSNPLTVEADKDLRRALTDLCPIRGLETRPWKEARICWYSDTRDGEWLIDYHPGWKGLFVATGDSGHGFKFLPNLGEKIVDVMQGQGGKLGEKWRWKEIQNDGVGRETNGVYTGLVTEDGSRGGRPLVLCDELEKGRALIGNTKAKL
# Columns and labels:
# [1] = test system: CC(C)[C@H](NCC1(O)OC[C@@H](O)[C@@H](O)[C@@H]1O)C(=O)O; experiment: cells, lysate or membranes named; details: other: substrate FV or FZL; 30.0 °C
# [2] = test system: O=C(N[C@@H](CCCCNCC1(O)OC[C@@H](O)[C@@H](O)[C@@H]1O)C(=O)O)OCc1ccccc1; experiment: cells, lysate or membranes named; details: other: substrate FV or FZL; 30.0 °C
# Text: Michaelis constant for respective substrates can be determined by measuring the initial reaction rate in the process for determination of titer as described above while keeping the conditions regarding enzyme concentration, pH, temperature, and the like constant and changing only the concentration of substrate.
# FAO-Q1 = FAO-Q1 (Fusarium proliferatum, UniProt A0A1L7VP54); experiment: Substrate specificity of FAO-Q1 (FAO activity, rate method, H2O2 colorimetry); type: biochemical
# Procedure: (§1) Titration of enzyme can be performed by a method known in the art (e.g., kinetic method), for example, that described in Example 1 (3). In this method, hydrogen peroxide generated by the reaction of an FAO with a glycated amino acid or peptide is measured on the basis of absorbance (505 nm) of quinone pigment produced in the presence of hydrogen peroxide. The amount (μmole) of hydrogen peroxide generated per minute is calculated on the basis of molar absorptivity (5.16×10^3 M^−1 cm^−1) of quinone pigment and the resultant numerical value is taken as a unit (U) of enzyme activity.
# (§2) FAO activity of the crude enzyme solution was determined by the aforementioned rate method. The time-course of generation of hydrogen peroxide in the reaction mixture below was measured by a colorimetric method, and FAO activity was evaluated.
# A mixture (total 3 ml) except for the enzyme solution was equilibrated at 30° C. After adding the enzyme solution, the time-course of absorbance at 505 nm was measured. The amount (μmole) of hydrogen peroxide generated per minute was calculated on the basis of molar absorptivity (5.16×10^3 M^−1 cm^−1) of quinone pigment produced, and the resultant numerical value was taken as a unit(U) of enzyme activity. […]
# The substrate specificity of the enzymes (FAO-Q1, FAO-Q2) contained in 2 fractions separated in (1), 3) above was determined. […]
# FAO-Q2 = experiment: Substrate specificity of FAO-Q2 (FAO activity, rate method, H2O2 colorimetry); type: biochemical, Fusarium proliferatum; details: for Relative activity (%) FAO-Q2: activity of FAO-Q2 on the substrate, FV = 100
# Procedure: as §1, §2
# (§3) A mixture (total 3 ml) except for the enzyme solution was equilibrated at 30° C. After adding the enzyme solution, the time-course of absorbance at 505 nm was measured. The amount (μmole) of hydrogen peroxide generated per minute was calculated on the basis of molar absorptivity (5.16×10^3 M^−1 cm^−1) of quinone pigment produced, and the resultant numerical value was taken as a unit(U) of enzyme activity. As a result, a strain having FAO was obtained.
# The substrate specificity of the enzymes (FAO-Q1, FAO-Q2) contained in 2 fractions separated in (1), 3) above was determined. The FAO activity was measured using the respective two fractions as an enzyme solution according to the method described in Example 1(3). As a substrate, FV, FVH, FVHL, FVL, FVLS and FZL were used.
# [3] = Determination of optimum pH of the enzyme reaction; type: biochemical, Fusarium proliferatum; details: pH 3.5-10.0 tested, at 30° C.
# Procedure: Enzyme reaction was conducted under different pH conditions between 3.5 and 10.0 according to the method for determination of activity as described above.
# The buffers used were 100 mM acetate buffer at pH range of 3.5-6.0, 100 mM potassium phosphate buffer at pH range of 6.0-8.0, 100 mM Tris-HCl buffer (pH range of 7.0-9.0) and 100 mM glycin-NaOH buffer at pH range of 9.0-10.0.
# [4] = Determination of optimum temperature for stability of enzyme; type: physicochemical, Fusarium proliferatum; details: incubated in 0.1 M Tris-HCl buffer (pH 8.0) at 30-65° C. for 10 minutes
# Procedure: Temperature conditions for the enzyme were determined by incubating FAO-Q1 or FAO-Q2 in 0.1 M Tris-HCl buffer (pH 8.0) at a temperature between 30 and 65° C. for 10 minutes, and measuring the activity under normal conditions.
# [5] = FAO activity of Resource Q fractions using FV as a substrate; type: biochemical, Fusarium proliferatum; details: Resource Q fraction
# Procedure: as §2, §3
# The ammonium sulfate fraction after dialysis was subjected to chromatography under the following conditions.
# Measurement of activity was performed in a similar manner to that described in Example 1 (3). FAOs contained in these fractions are herein referred to as “FAO-Q1” and “FAO-Q2”.
Molecule,Activity of FAO-Q2 on the substrate (in words) (FAO-Q2),Relative activity (%) FAO-Q2 (FAO-Q2) [%],Optimum pH for enzyme reaction [3],Optimum temperature for stability of enzyme [4],specific activity(U/mg) [5] [U/mg],also measured
FAO-Q1 (Fusarium proliferatum ET1),–,–,–,–,–,Km [1]: 620 µM; Km [2]: 560 µM
O=C(N[C@@H](CCCCNCC1(O)OC[C@@H](O)[C@@H](O)[C@@H]1O)C(=O)O)OCc1ccccc1 (stereo partly shown) [FZL],inactive and not,–,–,–,–,"Activity of FAO-Q1 on the substrate (in words) (FAO-Q1): almost equally active; also recorded: almost the same activity; Relative activity (%) FAO-Q1 (FAO-Q1; activity of FAO-Q1 on the substrate, FV = 100): 108%"
fructosyl valine-leucine-serine (VLS) [FVLS],–,3.3,–,–,–,–
fructosyl valine-histidine-leucine (VHL) [FVHL],active,0.6,–,–,–,–
B1,–,–,about 7.0,30-40 °C,0.067,Optimum pH for enzyme reaction ([3]; listed as FAO-O2): 7
B2,–,–,about 7.5,30-40 °C,0.3,Optimum pH for enzyme reaction ([3]; listed as FAO-O 1): 7.5
